Four sequences from US20060275803A1, “Rat and mouse members of the CRISP family of genes” (Wyeth, priority 2005, published 2006) can be followed below.

In the test the target is T1, rCRISPA (rCRISP1) (Rattus norvegicus, UniProt P12020).
T1 construct: Native rCRISPA (rCRISP1) protein, purified with DANA present; from tissue; host or cells: rat epididymis
T1 sequence (P12020 20-246): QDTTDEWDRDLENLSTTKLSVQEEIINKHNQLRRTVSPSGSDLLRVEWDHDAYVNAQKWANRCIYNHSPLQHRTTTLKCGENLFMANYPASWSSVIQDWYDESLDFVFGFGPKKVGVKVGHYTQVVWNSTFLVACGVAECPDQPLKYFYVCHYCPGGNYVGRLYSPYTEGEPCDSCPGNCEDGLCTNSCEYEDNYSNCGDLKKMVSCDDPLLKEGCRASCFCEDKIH
Put plainly: Protease activity screen: cleavage of substrate peptides by native rCRISPA (+DANA protocol), measured by fluorescence. The format is biochemical. To be noted: 5 μM substrate peptide, 1 μg enzyme, 100 mM NaCl, 25 mM Tris-Cl, pH 7.5; fluorescence at ten minute intervals for 130 minutes; FIG. 13. As for the experimental part:
FIG. 13 is a graph showing rCRISPA (rCRISP1) protease activity (assay conditions: 5 μM substrate peptide, 1 μg enzyme, 100 mM NaCl, 25 mM Tris-Cl, pH 7.5). A. Cleaved peptides A04 (RGARARLG), N08 (RKRRAPLA), N12 (AKRAASQI), N17 (RKRRAVLT), B22 (APQRFGKK), B17 (RQRYGKRS), B23 (RVKRYRQS), H03 (RNKRAVQG). B. Cleaved peptides B20 (PQRFGRNT), C16 (RVLGLKAH), J21 (LRNRAQSG), H07 (RVKRQVRS), H11 (RRLLRAIP), N05 (RARRELAP), H01 (RKKRSTKK), O22 (GGVRGPRV), O16 (AATRRQAV), O23 (KNVAMQKG), G24 (RRKRSTRE), A09 (RMRRYADA), M02 (EKQRIIGG), H17 (NGLRADPM). C. Uncleaved peptides L16 (KTPRWGG), N10 (FYRADQPR), B11 (AAGVAPLS), J03 (PQLHSTGG), C01 (GPQGLLGA), K11 (VIPRSGGS), M07 (GLQRALEI), A01 (WQGGRRKF), H02 (RAKRSVHF), A10 (SAARPAPP), M16 (RSRREADL), A05 (SYRKVLGQ), M18 (VHRDMAAR), C23 (RDAQAHPG), M09 (GSQHIRAE), E19 (RLGREGVQ), D06 (ALAEAMKK).
Native rCRISPA (rCRISP1) protein, purified with DANA present (see Example 4), was screened for the ability to cleave 360 unique peptides using the commercially available peptide substrate set (catalog # PrSS-360-75, JPT Peptide Technologies, Springfield, Va.). […] The substrate peptides cleaved by rCRISPA in this assay are represented by blue and green traces noted in FIG. 13. Peptides that were not cleaved by rCRISPA are also noted in FIG. 13.

In the case of “GLQRALEI [M07, substrate peptide of the commercial peptide substrate set PrSS-360-75, JPT Peptide Technologies]”, the “cleavage of substrate peptide by rCRISPA (rCRISP1) protease activity” value is “Uncleaved”. To “RRKRSTRE [G24, substrate peptide of the commercial peptide substrate set PrSS-360-75, JPT Peptide Technologies]” belongs “Cleaved”; to “RKRRAVLT [N17, substrate peptide of the commercial peptide substrate set PrSS-360-75, JPT Peptide Technologies]”, “Cleaved”. To “RVKRYRQS [B23, substrate peptide of the commercial peptide substrate set PrSS-360-75, JPT Peptide Technologies]” belongs “Cleaved”.
